In patent US20240101959A1, “USE OF IL-2R-BETA-GAMMA AGONIST PEPTIDES IN CELL MANUFACTURING” (MEDIKINE, INC., priority 2022, published 2024):
Positions of bridges follow the written chain, without caps; N, C: chain ends. No end group written: not given here.

T1: hu-IL-2Rβ subunit (human, UniProt P14784 27-240, limits assumed)
T1 construct: also called human interleukin-2 receptor subunit β; CD122
T1 sequence (looked up): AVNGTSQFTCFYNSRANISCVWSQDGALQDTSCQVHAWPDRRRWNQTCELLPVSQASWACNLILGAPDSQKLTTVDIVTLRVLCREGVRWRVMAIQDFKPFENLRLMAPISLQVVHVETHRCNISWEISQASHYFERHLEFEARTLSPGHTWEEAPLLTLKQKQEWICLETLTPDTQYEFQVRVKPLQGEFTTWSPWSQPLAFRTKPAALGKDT


target: T1, hu-IL-2Rβ subunit; test: phage ELISA competition assay

| Binder | IC50 [µM] |
| --- | --- |
| WLPCWRAQLGQLCDLD [SEQ ID NO 385] | < 100 |
| ARGEYRWFPCWMARLGELCDLE [SEQ ID NO 410] | < 100 |
| WHPCWLARVGDLCDLD [SEQ ID NO 366] | < 100 |
| WSPCWMASLGDLCDLEETRQTE [SEQ ID NO 418] | < 100 |
| WLPCWIARLGDLCDLE [SEQ ID NO 80] | < 100 |
| NVTYTQWFPCWLARLGELCDLV [SEQ ID NO 407] | < 100 |
| SGTGPAWYPCFLASLGQLCDLE [SEQ ID NO 383] | < 100 |
| IERAWEWRPCWLASVGELCDLE [SEQ ID NO 413] | < 100 |
| YLERSRWYPCFIAQLGELCDLE [SEQ ID NO 411] | < 100 |
| VRTRIWYPCWSAQLGELCDLD [SEQ ID NO 408] | < 100 |
| RRWLPCWMAHVGELCDLELGN [SEQ ID NO 354] | < 100 |
| FRVSRDWFPCWMAQLGEVCDLE (disulfide 10-19 (inferred)) [SEQ ID NO 412] | < 100 |
| WWPCWMAQLGEMCDLEYPYVPG [SEQ ID NO 103] | < 100 |
| WLPCYMAQLGDLCDLE [SEQ ID NO 391] | < 100 |
| RSLRESWFPCWMAKLGDLCDLE [SEQ ID NO 365] | < 100 |
| SATWYPCFLANLGELCDLEQEN [SEQ ID NO 373] | < 100 |
| WYSCWIAQIGELCDLE [SEQ ID NO 356] | < 100 |
| WYPCSIASLGELCDLE [SEQ ID NO 390] | < 100 |
| VASERFYPCWIARLGELCDVE (disulfide 9-18 (inferred)) [SEQ ID NO 414] | < 100 |

| Binder | IC50 [µM] |
| --- | --- |
| DSDWWPCWMAQLGELCDLEDAR [SEQ ID NO 101] | < 100 |
| WYPCWLASLGEVCDLE [SEQ ID NO 393] | < 100 |
| QVMRLWYPCWMAQLGELCDLE [SEQ ID NO 370] | < 100 |
| KNGPKSWYPCWMAQVGDLCDLD [SEQ ID NO 382] | < 100 |
| ESEGRGWYPCWNALLGELCDLE (disulfide 10-19 (inferred)) [SEQ ID NO 401] | < 100 |
| LHAGRWNPCWLAQLGELCDLE [SEQ ID NO 403] | < 100 |
| SRSAGEYYPCWLAQLGELCDLA [SEQ ID NO 367] | < 100 |
| TESWYPCWLANLGDLCDLEWSA [SEQ ID NO 378] | < 100 |
| RKHFYPCWMAQLGELCDLEGMP [SEQ ID NO 99] | < 100 |
| DMFTHRWYPCSMAKLGELCDLE [SEQ ID NO 405] | < 100 |
| DIGYYPCWMAQVGDLCDLDDEK [SEQ ID NO 100] | < 100 |
| WYPCWRAQLGELCDLVDLGSHL (disulfide 4-13 (inferred)) [SEQ ID NO 417] | < 100 |
| WYPCWLAHLGELCDLDWKGRND [SEQ ID NO 416] | < 100 |
| RWTQAQWYPCWLAQLGELCDLE [SEQ ID NO 402] | < 100 |
| RPSWAPCWLAQVGELCDLDHPE (disulfide 7-16 (inferred)) [SEQ ID NO 363] | < 100 |
| YWCWFARVGELCDLDDGGVPS [SEQ ID NO 355] | < 100 |
| LGSKRQWYPCWVAHLGELCDLE [SEQ ID NO 400] | < 100 |
| EEQSRGFLPCWMALLGELCDLD [SEQ ID NO 399] | < 100 |
| LSSKGWYPCWKARLGDLCDLE (disulfide 9-18 (inferred)) [SEQ ID NO 404] | < 100 |

Next, values leading:

| IC50 [µM] | Binder |
| --- | --- |
| < 100 | LFPCWLAQLGELCDLE [SEQ ID NO 386] |
| < 100 | EGVFFPCWIARLGELCDLDHGL [SEQ ID NO 97] |
| < 100 | QGTKWHWNPCWMAQLGELCDLD [SEQ ID NO 381] |
| < 100 | WHPCWMARLGELCDLD [SEQ ID NO 380] |
| < 100 | SHLWFPCWMAQLGELCDLEGGP [SEQ ID NO 353] |
| < 100 | WKPCWMALLGELCDLE [SEQ ID NO 397] |
| < 100 | RDIWWPCWVAQLGELCDLDDPQ [SEQ ID NO 372] |
| < 100 | YAEWYPCWMARVGEVCDLEVTP [SEQ ID NO 374] |
| < 100 | MTDRAFWNPCWVARLGELCDLD [SEQ ID NO 406] |
| < 100 | GERWKPCWIAQLGELCDLDFNW [SEQ ID NO 102] |
| < 100 | WYPCSIALLGELCDLESVHEKS (disulfide 4-13 (inferred)) [SEQ ID NO 359] |
| < 100 | WLPCWMAHLGDLCDLE [SEQ ID NO 362] |
| < 100 | EQRNRQWWPCWLARLGDLCDLD [SEQ ID NO 360] |
| < 100 | HGGVIGWYPCWMAKVGELCDLD (disulfide 10-19 (inferred)) [SEQ ID NO 358] |
| < 100 | MYPCWIAHLGELCDLD [SEQ ID NO 389] |
| < 100 | WYPCWLAQLGELCDAE [SEQ ID NO 396] |
| < 100 | TGRWKPCWMAGLHELCDLEGFR [SEQ ID NO 98] |
| < 100 | WYPCWIAKLGEVCDLDQGTTRQ [SEQ ID NO 415] |
| < 100 | MNPVGTFYPCWIAKLGELCDLQ [SEQ ID NO 357] |
| < 100 | WLPCWMADVGDLCDLD [SEQ ID NO 379] |
| < 100 | RSGDKAFFPCWLAQLGDLCDLD [SEQ ID NO 375] |
| < 100 | WYPCWMAQLGELCDLDEAPVQP [SEQ ID NO 371] |
| < 100 | RQVPKQWYPCWMAALGELCDLE [SEQ ID NO 368] |
| < 100 | RYPCWRAKLGELCDLD [SEQ ID NO 398] |
| < 100 | WWPCSIARLGQLCDLD [SEQ ID NO 394] |
| < 100 | RVSYPCWLARLGELCDMDLEE [SEQ ID NO 377] |
| < 100 | AMARRYLPCWIAKLGELCELD (disulfide 9-18 (inferred)) [SEQ ID NO 409] |
| < 100 | ESKEPAFWPCWMAQLGDLCDLE [SEQ ID NO 364] |
